Test results: publication doi:10.64898/2025.12.14.694184 (bioRxiv, 2025)

B1: mouse CLCC1 N-terminal domain dimer (CLCC1-NTD-6×His) (domain or fragment, UniProt Q99LI2 19-184, looked up)
chain: HDDDWIDPTDMLNYDAASGTMRKSQVRSGTSEKKEVSPDSSEAEELSDCLHRLDSLTHKVDSCEKKKMKDYESQSNPVFRRYLNKILIEAGKLGLPDENKVEMRYDAEILLSRQTLLEIQKFLSGEEWKPGALDDALSDILINFKCHDSEAWKWQFEDYFGVDPYN
modifications: inter-molecular disulfide bonds in the dimer
B2: human TorsinA-StrepTagII-FLAG-StrepTagII (enzyme, UniProt O14656 21-332, looked up)
chain: VEPISLGLALAGVLTGYIYPRLYCLFAECCGQKRSLSREALQKDLDDNLFGQHLAKKIILNAVFGFINNPKPKKPLTLSLHGWTGTGKNFVSKIIAENIYEGGLNSDYVHLFVATLHFPHASNITLYKDQLQLWIRGNVSACARSIFIFDEMDKMHAGLIDAIKPFLDYYDLVDGVSYQKAMFIFLSNAGAERITDVALDFWRSGKQREDIKLKDIEHALSVSVFNNKNSGFWHSSLIDRNLIDYFVPFLPLEYKHLKMCIRVEMQSRGYEIDEDIVSRVAEEMTFFPKEERVFSDKGCKTVFTKLDYYYDD

How the values were obtained:
[1] = biological target: B2; experiment: pull-down
non-reducing SDS-PAGE = biological target: the molecule itself; experiment: non-reducing SDS-PAGE
native gel or EMSA = biological target: the molecule itself; experiment: native gel or EMSA

Binder	binding result [1]	stoichiometry N (non-reducing SDS-PAGE)	binding result (native gel or EMSA)
B1	binds	2	–
B2	–	–	binds
